# Measured values published in doi:10.1101/2025.08.27.672506.
# Molecular target: wild-type ectodomain of HA from A/Malaysia/1706215/2007 (H1N1) (influenza A virus A/Malaysia/1706215/2007 (H1N1))
# Assay: SEC
substance,measurement,value
wild-type ectodomain of HA from A/Malaysia/1706215/2007 (H1N1) (domain or fragment),stoichiometry N,3
